Laboratory results: patent US20260062488A1
Where “and” joins values, the source holds several entries; their conditions need not be identical. Equal values may be shown once. Read-outs that look alike come from different tables or passages of the source.

Legend:
[1] = molecular target: human αEβ7 integrin (human) (UniProt P38570); test: FACS, 1 µg/ml, BaF3-hαEβ7 cells
[2] = molecular target: cynomolgus α4β7 integrin (cynomolgus monkey); test: FACS, 1 µg/ml, CHOK1-cα4β7 cells
[3] = molecular target: human α4β7 integrin (human) (UniProt P13612); test: FACS, human CD8+ naïve
[4] = molecular target: human α4β7 integrin (human) (UniProt P13612); test: blockade of HuT78 cell adhesion to plate-bound MAdCAM-1, representative experiment; the two IC50 lines under the plot bear no name: the higher one is given to Ab-Vedo, whose curve lies right of Ab-m1's (midpoint near log -1.8 ug/ml)
[5] = molecular target: mouse α4β7 integrin (mouse) (UniProt Q00651); test: FACS, 1 µg/ml, CHOK1-mα4β7 cells
Chain of mouse α4β7 integrin (mouse) (Q00651 41-1039, chain 1 of 2): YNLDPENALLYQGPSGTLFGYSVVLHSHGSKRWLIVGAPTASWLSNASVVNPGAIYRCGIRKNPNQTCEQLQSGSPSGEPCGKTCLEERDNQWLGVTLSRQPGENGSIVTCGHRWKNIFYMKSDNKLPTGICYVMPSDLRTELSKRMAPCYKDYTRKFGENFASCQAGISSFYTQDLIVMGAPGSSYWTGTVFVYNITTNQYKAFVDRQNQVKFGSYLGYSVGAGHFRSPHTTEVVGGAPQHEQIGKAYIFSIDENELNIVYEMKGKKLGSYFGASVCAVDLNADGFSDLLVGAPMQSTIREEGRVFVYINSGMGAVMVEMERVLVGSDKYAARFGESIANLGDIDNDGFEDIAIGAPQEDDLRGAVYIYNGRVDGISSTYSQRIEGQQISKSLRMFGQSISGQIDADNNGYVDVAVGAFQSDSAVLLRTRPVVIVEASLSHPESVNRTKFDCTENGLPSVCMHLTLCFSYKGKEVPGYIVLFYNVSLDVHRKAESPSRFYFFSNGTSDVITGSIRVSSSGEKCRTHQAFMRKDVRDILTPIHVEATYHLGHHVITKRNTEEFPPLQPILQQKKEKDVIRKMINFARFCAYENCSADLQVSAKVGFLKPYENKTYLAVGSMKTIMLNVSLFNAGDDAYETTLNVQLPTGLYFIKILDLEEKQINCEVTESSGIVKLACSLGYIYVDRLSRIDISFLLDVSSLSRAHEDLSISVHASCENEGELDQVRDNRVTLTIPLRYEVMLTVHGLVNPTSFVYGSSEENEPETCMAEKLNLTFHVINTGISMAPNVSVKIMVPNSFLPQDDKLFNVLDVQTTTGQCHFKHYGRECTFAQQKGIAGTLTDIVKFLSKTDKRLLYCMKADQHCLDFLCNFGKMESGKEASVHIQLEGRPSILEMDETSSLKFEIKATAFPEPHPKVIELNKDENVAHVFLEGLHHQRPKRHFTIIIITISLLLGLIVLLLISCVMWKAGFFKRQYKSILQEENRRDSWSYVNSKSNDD
Chain of mouse α4β7 integrin (mouse) (P26011 20-806, chain 2 of 2, further chain): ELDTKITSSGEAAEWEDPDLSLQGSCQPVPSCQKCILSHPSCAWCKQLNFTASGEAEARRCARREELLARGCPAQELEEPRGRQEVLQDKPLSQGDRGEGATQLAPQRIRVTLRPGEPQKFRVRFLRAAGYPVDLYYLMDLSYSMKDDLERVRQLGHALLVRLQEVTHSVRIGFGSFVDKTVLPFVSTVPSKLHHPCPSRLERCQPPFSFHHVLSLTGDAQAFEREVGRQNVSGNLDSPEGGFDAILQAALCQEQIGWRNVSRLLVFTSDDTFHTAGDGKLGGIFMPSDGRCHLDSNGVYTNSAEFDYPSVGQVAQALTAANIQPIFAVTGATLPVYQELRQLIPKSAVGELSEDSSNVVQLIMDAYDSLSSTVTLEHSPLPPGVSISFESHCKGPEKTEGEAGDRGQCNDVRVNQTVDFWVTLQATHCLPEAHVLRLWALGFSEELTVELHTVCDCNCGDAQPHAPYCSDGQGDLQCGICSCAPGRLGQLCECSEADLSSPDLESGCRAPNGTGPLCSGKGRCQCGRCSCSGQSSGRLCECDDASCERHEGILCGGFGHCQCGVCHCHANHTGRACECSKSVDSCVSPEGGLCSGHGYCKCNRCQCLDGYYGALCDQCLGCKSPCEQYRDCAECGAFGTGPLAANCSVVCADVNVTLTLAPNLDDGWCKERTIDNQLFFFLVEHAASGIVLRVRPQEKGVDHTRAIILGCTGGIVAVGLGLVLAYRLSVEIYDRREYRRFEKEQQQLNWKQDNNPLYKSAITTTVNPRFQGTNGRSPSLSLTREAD

[6] = molecular target: human α4β1 integrin (human) (UniProt P05556); test: FACS, 1 µg/ml, CHOK1-hα4β1 cells
[7] = molecular target: human α4β7 integrin (human) (UniProt P13612); test: blockade of HuT78 cell adhesion to MAdCAM-1
[8] = molecular target: human α4β7 integrin (human) (UniProt P13612); test: competitive FACS, 50x excess of non-labelled competitor Ab-m1
[9] = molecular target: cynomolgus α4β7 integrin (cynomolgus monkey); test: FACS, cyno CD4+ total
[10] = molecular target: human α4β7 integrin (human) (UniProt P13612); test: FACS, primary human CD4+ memory T cells
[11] = molecular target: cynomolgus α4β7 integrin (cynomolgus monkey); test: blockade of CHOK1-cα4β7 cell adhesion to MAdCAM-1, representative experiment; the two IC50 lines under the plot bear no name: the higher one is given to Ab-Vedo, whose curve lies clearly right of Ab-m1's (midpoint near log -0.9 ug/ml)
[12] = molecular target: cynomolgus αEβ7 integrin (cynomolgus monkey); test: FACS, 1 µg/ml, BaF3-cαEβ7 cells
[13] = molecular target: cynomolgus α4β7 integrin (cynomolgus monkey); test: FACS, cyno CD8+ naïve
[14] = molecular target: cynomolgus αEβ7 integrin (cynomolgus monkey); test: FACS, 1 µg/ml, BaF3-cαEβ7 cells; remark: listed apart in the source
[15] = molecular target: human α4β7 integrin (human) (UniProt P13612); test: ELISA on plates coated with α4β7+GFP+VLPs; table drawn under the plot, without unit: unit from the axis '[Ab] (nM)'; the text prints the rounded 0.058 nM
[16] = molecular target: cynomolgus α4β7 integrin (cynomolgus monkey); test: FACS, 1 µg/ml, CHOK1-cα4β7 cells; remark: listed apart in the source
[17] = molecular target: cynomolgus α4β7 integrin (cynomolgus monkey); test: blockade of CHOK1-cα4β7 cell adhesion to MAdCAM-1
[18] = molecular target: human α4β7 integrin (human) (UniProt P13612); test: binding to human lymphocytes
[19] = molecular target: human α4β7 integrin (human) (UniProt P13612); test: virion capture, Protein G plate, HIV CMU08, p24 gag
[20] = molecular target: cynomolgus α4β7 integrin (cynomolgus monkey); test: blockade of CHOK1/cα4β7 adhesion to MAdCAM-1
[21] = molecular target: human α4β7 integrin (human) (UniProt P13612); test: HuT78 cells, FACS-based blockade of MAdCAM-1 binding
[22] = molecular target: human α4β7 integrin (human) (UniProt P13612); test: FACS, human CD4+ naïve
[23] = molecular target: cynomolgus α4β7 integrin (cynomolgus monkey); test: FACS, cyno CD4+ naïve
[24] = molecular target: human α4β7 integrin (human) (UniProt P13612); test: competitive FACS, 50x excess of non-labelled competitor Ab-Abri
[25] = molecular target: human α4β7 integrin (human) (UniProt P13612); test: flow cytometry, HuT78 cells
[26] = molecular target: human α4β7 integrin (human) (UniProt P13612); test: virion capture, Protein G plate, HIV RU570, p24 gag
[27] = molecular target: cynomolgus α4β7 integrin (cynomolgus monkey); test: FACS, cyno CD8+ memory
[28] = molecular target: human α4β7 integrin (human) (UniProt P13612); test: FACS, human CD4+ total
[29] = molecular target: human α4β7 integrin (human) (UniProt P13612); test: human lymphocytes, printed as plate-based cell adhesion blockade to MAdCAM-1
[30] = molecular target: human α4β7 integrin (human) (UniProt P13612); test: FACS, 1 µg/ml, BaF3-hα4β7 cells
[31] = molecular target: human α4β7 integrin (human) (UniProt P13612); test: competitive FACS, 50x excess of non-labelled competitor Ab-Vedo
[32] = molecular target: human α4β7 integrin (human) (UniProt P13612); test: ELISA on coated α4β7+GFP+VLPs
[33] = molecular target: human α4β7 integrin (human) (UniProt P13612); test: row IC50 (pM) HuT78 of the binning table (assay not explained, presumably adhesion to MAdCAM-1)
[34] = molecular target: cynomolgus α4β7 integrin (cynomolgus monkey); test: FACS, cyno CD8+ total
[35] = molecular target: cynomolgus α4β7 integrin (cynomolgus monkey); test: blockade of CHOK1-cα4β7 cell adhesion to MAdCAM-1; remark: listed apart in the source
[36] = molecular target: human α4β7 integrin (human) (UniProt P13612); test: competitive FACS, 50x excess of non-labelled competitor Ab-Etro
[37] = molecular target: human α4β7 integrin (human) (UniProt P13612); test: virion capture, Protein G plate, HIV NL4-3, p24 gag
[38] = molecular target: human α4β7 integrin (human) (UniProt P13612); test: virion capture, Protein G plate, HIV BCF06, p24 gag
[39] = molecular target: human α4β7 integrin (human) (UniProt P13612); test: FACS titration on BaF3-hα4β7
[40] = molecular target: human α4β7 integrin (human) (UniProt P13612); test: blockade of HuT78 cell adhesion to MAdCAM-1; remark: listed apart in the source
[41] = molecular target: human α4β7 integrin (human) (UniProt P13612); test: blockade of RPMI 8866 cell binding to immobilised gp120-V2 WT peptide
[42] = molecular target: human αEβ7 integrin (human) (UniProt P38570); test: FACS, 1 µg/ml, BaF3-hαEβ7 cells; remark: listed apart in the source
[43] = molecular target: human α4β7 integrin (human) (UniProt P13612); test: FACS, human CD8+ total
[44] = molecular target: human α4β1 integrin (human) (UniProt P05556); test: FACS, 1 µg/ml, CHOK1-hα4β1 cells; remark: listed apart in the source
[45] = molecular target: human α4β7 integrin (human) (UniProt P13612); test: virion capture, Protein G plate, HIV YBF30, p24 gag
[46] = molecular target: human α4β7 integrin (human) (UniProt P13612); test: FACS, 1 µg/ml, BaF3-hα4β7 cells; remark: listed apart in the source
[47] = molecular target: human α4β7 integrin (human) (UniProt P13612); test: blockade of MAdCAM-1 mediated HuT78 cell adhesion
[48] = molecular target: human α4β7 integrin (human) (UniProt P13612); test: cell-based or functional assay

Chain of Ab-Vedo (antibody) (VH): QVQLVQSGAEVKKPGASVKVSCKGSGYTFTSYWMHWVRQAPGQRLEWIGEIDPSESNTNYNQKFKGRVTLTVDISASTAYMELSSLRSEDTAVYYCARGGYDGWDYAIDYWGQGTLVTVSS
Chain of Ab-Vedo (antibody) (VL): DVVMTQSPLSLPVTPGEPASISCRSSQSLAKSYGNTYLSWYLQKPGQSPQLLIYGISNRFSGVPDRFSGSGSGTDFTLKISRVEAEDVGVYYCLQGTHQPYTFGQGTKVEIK

Ab-Vedo (antibody)
FACS MFI [1]: 19.5 MFI
FACS MFI [2]: 46.5 MFI
EC50 [3]: 0.727 nM
IC50 [4]: 0.0981 nM
FACS MFI [5]: 2.91 MFI
FACS MFI [6]: 4.23 MFI
IC50 [7]: 0.0949 nM
Max inhibition (%) [7]: 86.5%
percentage of binding inhibition [8]: 76%
EC50 [9]: 0.202 nM
EC50 [10]: 0.0432 nM
IC50 [11]: 0.822 nM
FACS MFI [12]: 57.2 MFI
EC50 [13]: 0.256 nM
FACS MFI [14]: 60.9 MFI
EC50 [15]: 0.0582 nM
FACS MFI [16]: 101 MFI
IC50 [17]: 0.562 nM
Max inhibition (%) [17]: 76%
EC50 [18]: 0.502 nM
EC50 [19]: 0.5 nM and 0.075 µg/mL
IC50 [20]: 0.12 nM
IC50 [21]: 0.193 nM
EC50 [22]: 0.381 nM
EC50 [23]: 0.228 nM
percentage of binding inhibition [24]: 89%
EC50 [25]: 0.911 nM
EC50 [26]: 0.32 nM and 0.048 µg/mL
EC50 [27]: 0.204 nM
EC50 [28]: 0.381 nM
IC50 [29]: 0.63 nM
FACS MFI [30]: 153 MFI
percentage of binding inhibition [31]: 88%
EC50 [32]: 0.058 nM
IC50 [33]: 0.089 nM
EC50 [34]: 0.199 nM
IC50 [35]: 0.541 nM
Max inhibition (%) [35]: 94.4%
percentage of binding inhibition [36]: 18%
EC50 [37]: 0.34 nM and 0.05 µg/mL
EC50 [38]: 0.37 nM and 0.056 µg/mL
EC50 [39]: 0.713 nM
Max MFI [39]: 848 MFI
IC50 [40]: 0.0574 nM
Max inhibition (%) [40]: 94.7%
IC50 [41]: 0.042 µg/mL
FACS MFI [42]: 11.6 MFI
EC50 [43]: 0.658 nM
FACS MFI [44]: 2.87 MFI
EC50 [45]: 0.48 nM and 0.072 µg/mL
FACS MFI [46]: 707 MFI
IC50 [47]: 0.031 nM and 0.06 nM

MAdCAM-1 (R&D systems) (from UniProt Q13477 19-317) (ligand)
activated (Ki67+CD25+) human primary CD4+ T cells with plate bound anti-CD3 and MAdCAM-1 (22.6% with anti-CD3 alone) [48]: 56.6%
